Our source for the Kd values is article PMC6277173.

Assay [1] concerns the target BM09 (su3H6 with T94hR, Y27hA). The experiment in a line: BLI; protein A bio-assay (Octet QKe): Ab2/3H6 variants captured from concentrated culture supernatants on protein A biosensors, blocked with an unspecific scFv-Fc antibody, association and dissociation of 2F5 IgG measured; kinetics buffer; KD averaged. (In BLI a coated tip is dipped into the sample, and binding shifts an interference pattern.)

The target of assay [2] is BM07/vL03 (su3H6 with T94hR, F46lL, Q49lS). The assay is described as above.
Assay [3] concerns the target BM07/vL01 (su3H6 with T94hR, F46lL). The description is as above.
The next assay addresses BM07 (su3H6 with T94hR). The assay is described as above.
For assay [4], the target named is BM07/vL02 (su3H6 with T94hR, Q49lS). The assay is described as above.
In assay [5] the target is human anti HIV-1 monoclonal antibody 2F5 IgG (human). Kind of assay: BLI; streptavidin bio-assay (Octet QKe): biotinylated 2F5 IgG loaded on streptavidin biosensors, association and dissociation of purified Ab2/3H6 variants; kinetics buffer; KD averaged over different Ab2/3H6 concentrations.

B1: human anti HIV-1 monoclonal antibody 2F5 IgG (antibody, V domains shown)
VH: RITLKESGPPLVKPTQTLTLTCSFSGFSLSDFGVGVGWIRQPPGKALEWLAIIYSDDDKRYSPSLNTRLTITKDTSKNQVVLVMTRVSPVDTATYFCAHRRGPTTLFGVPIARGPVNAMDVWGQGITVTISS
VL: ALQLTQSPSSLSASVGDRITITCRASQGVTSALAWYRQKPGSPPQLLIYDASSLESGVPSRFSGSGSGTEFTLTISTLRPEDFATYYCQQLHFYPHTFGGGTRVDVR
In general, Kd refers to a measure of binding affinity in units of concentration. Lower therefore signals a tighter complex. On to B1, for which the dissociation constant (Kd) was determined as 39 µM in assay [1]; 0.021 µM in assay [2]; 0.022 µM in assay [3]; 0.17 µM in the assay with BM07 (su3H6 with T94hR); 0.095 µM in assay [4].

B2: mouse antibody Ab2/3H6 (wt3H6) (antibody, V domains shown)
VH: GVQLQQSGPELVKTGASVKISCKASGYSFTDYFMHWVKQSHGKSLDWIGYINCYTGATNYSQKFKGKATFTVDTSSNTAYMQFNSLTSEDSAVYYCARTSIGYGSSPPFPYWGQGTLVTVS
VL: ETTVTQSPASLSMSIGEKVTIRCITSTDIDDDMNWYQQKPGEPPRLLISDGNTLRPGVPSRFSSSGYGTDFVFTIENMLSEDVADYYCLQSDNLPYTFGGGTNLEIK
Molecule B2 gave a dissociation constant (Kd) in assay [5] of 0.035 µM.

B3: BM07/vL03 (su3H6 with T94hR, F46lL, Q49lS) (antibody, V domains shown)
VH: EVQLVQSGAEVKKPGATVKISCKVSGYTFTDYFMHWVQQAPGKGLEWMGYINCYTGATNYSQKFKGRVTITADTSTDTAYMELSSLRSEDTAVYYCARTSIGYGSSPPFPYWGQGTLVTVS
VL: ETTLTQSPAFMSATPGDKVNISCITSTDIDDDMNWYQQKPGEAAILIISDGNTLRPGIPPRFSGSGYGTDFTLTINNIESEDAAYYFCLQSDNLPYTFGQGTKLEIK
In assay [5], B3 came in with a Kd of 0.029 µM.

B4: BM09 (su3H6 with T94hR, Y27hA) (antibody, V domains shown)
VH: EVQLVQSGAEVKKPGATVKISCKVSGATFTDYFMHWVQQAPGKGLEWMGYINCYTGATNYSQKFKGRVTITADTSTDTAYMELSSLRSEDTAVYYCARTSIGYGSSPPFPYWGQGTLVTVS
VL: ETTLTQSPAFMSATPGDKVNISCITSTDIDDDMNWYQQKPGEAAIFIIQDGNTLRPGIPPRFSGSGYGTDFTLTINNIESEDAAYYFCLQSDNLPYTFGQGTKLEIK
Regarding B4, the Kd in assay [5] was 8.3 µM.

B5: BM07/vL02 (su3H6 with T94hR, Q49lS) (antibody, V domains shown)
VH: EVQLVQSGAEVKKPGATVKISCKVSGYTFTDYFMHWVQQAPGKGLEWMGYINCYTGATNYSQKFKGRVTITADTSTDTAYMELSSLRSEDTAVYYCARTSIGYGSSPPFPYWGQGTLVTVS
VL: ETTLTQSPAFMSATPGDKVNISCITSTDIDDDMNWYQQKPGEAAIFIISDGNTLRPGIPPRFSGSGYGTDFTLTINNIESEDAAYYFCLQSDNLPYTFGQGTKLEIK
The molecule B5 came in with a dissociation constant (Kd) in assay [5] of 0.059 µM.

B6: BM07/vL01 (su3H6 with T94hR, F46lL) (antibody, V domains shown)
VH: EVQLVQSGAEVKKPGATVKISCKVSGYTFTDYFMHWVQQAPGKGLEWMGYINCYTGATNYSQKFKGRVTITADTSTDTAYMELSSLRSEDTAVYYCARTSIGYGSSPPFPYWGQGTLVTVS
VL: ETTLTQSPAFMSATPGDKVNISCITSTDIDDDMNWYQQKPGEAAILIIQDGNTLRPGIPPRFSGSGYGTDFTLTINNIESEDAAYYFCLQSDNLPYTFGQGTKLEIK
The molecule B6 displayed a Kd in assay [5] of 0.028 µM.

B7: BM07 (su3H6 with T94hR) (antibody, V domains shown)
VH: EVQLVQSGAEVKKPGATVKISCKVSGYTFTDYFMHWVQQAPGKGLEWMGYINCYTGATNYSQKFKGRVTITADTSTDTAYMELSSLRSEDTAVYYCARTSIGYGSSPPFPYWGQGTLVTVS
VL: ETTLTQSPAFMSATPGDKVNISCITSTDIDDDMNWYQQKPGEAAIFIIQDGNTLRPGIPPRFSGSGYGTDFTLTINNIESEDAAYYFCLQSDNLPYTFGQGTKLEIK
B7 registered a Kd in assay [5] of 0.33 µM.
